Target: T1, Torpedo nAChR (extract from the electric organ of Torpedo californica) (Tetronarce californica (Torpedo …, UniProt P02710;P02712;P02714;P02718))
T1 construct: acetylcholine receptor α-subunit, Torpedo californica; acetylcholine receptor β-subunit, Torpedo californica; acetylcholine receptor γ-subunit, Torpedo californica; acetylcholine receptor δ-subunit, Torpedo californica; also called torpedo AChR antigen; source: extract of the electric organ of Torpedo californica (gift, University of Nagasaki); copies: + + +
Experiment: radio immunoprecipitation assay; extract of the electric organ of Torpedo californica or extract of rat sciatic nerve as antigen; relative binding affinity; method of ref. 54
Settings: one partner purified

T1 sequence (P02718 whole entry, looked up, chain 1 of 4): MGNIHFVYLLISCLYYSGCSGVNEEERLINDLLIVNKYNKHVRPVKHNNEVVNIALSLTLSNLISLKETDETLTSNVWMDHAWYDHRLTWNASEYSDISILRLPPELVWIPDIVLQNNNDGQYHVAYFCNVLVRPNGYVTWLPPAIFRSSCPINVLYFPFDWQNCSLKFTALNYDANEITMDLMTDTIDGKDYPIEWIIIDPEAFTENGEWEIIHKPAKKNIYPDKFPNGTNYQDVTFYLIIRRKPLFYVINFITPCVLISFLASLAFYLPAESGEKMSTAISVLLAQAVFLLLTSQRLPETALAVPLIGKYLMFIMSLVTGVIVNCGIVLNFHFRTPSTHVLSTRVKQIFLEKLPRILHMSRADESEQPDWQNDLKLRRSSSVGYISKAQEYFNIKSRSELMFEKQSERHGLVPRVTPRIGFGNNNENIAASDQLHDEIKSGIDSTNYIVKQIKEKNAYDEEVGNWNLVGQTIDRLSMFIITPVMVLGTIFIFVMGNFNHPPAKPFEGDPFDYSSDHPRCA
T1 sequence (P02714 whole entry, looked up, chain 2 of 4): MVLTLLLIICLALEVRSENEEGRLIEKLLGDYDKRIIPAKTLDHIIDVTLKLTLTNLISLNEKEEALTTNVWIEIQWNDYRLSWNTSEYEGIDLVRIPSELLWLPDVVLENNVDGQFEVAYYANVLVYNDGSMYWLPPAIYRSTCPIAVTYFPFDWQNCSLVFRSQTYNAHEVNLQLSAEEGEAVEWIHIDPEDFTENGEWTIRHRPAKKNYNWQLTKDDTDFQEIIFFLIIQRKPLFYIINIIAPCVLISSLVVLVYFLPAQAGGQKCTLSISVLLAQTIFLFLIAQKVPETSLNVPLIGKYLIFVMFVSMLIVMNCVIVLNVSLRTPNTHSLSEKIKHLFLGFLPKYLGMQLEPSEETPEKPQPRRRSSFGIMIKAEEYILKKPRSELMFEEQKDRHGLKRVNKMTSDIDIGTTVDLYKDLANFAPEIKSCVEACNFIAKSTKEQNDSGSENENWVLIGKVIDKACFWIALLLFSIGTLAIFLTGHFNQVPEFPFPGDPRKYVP
T1 sequence (P02712 whole entry, looked up, chain 3 of 4): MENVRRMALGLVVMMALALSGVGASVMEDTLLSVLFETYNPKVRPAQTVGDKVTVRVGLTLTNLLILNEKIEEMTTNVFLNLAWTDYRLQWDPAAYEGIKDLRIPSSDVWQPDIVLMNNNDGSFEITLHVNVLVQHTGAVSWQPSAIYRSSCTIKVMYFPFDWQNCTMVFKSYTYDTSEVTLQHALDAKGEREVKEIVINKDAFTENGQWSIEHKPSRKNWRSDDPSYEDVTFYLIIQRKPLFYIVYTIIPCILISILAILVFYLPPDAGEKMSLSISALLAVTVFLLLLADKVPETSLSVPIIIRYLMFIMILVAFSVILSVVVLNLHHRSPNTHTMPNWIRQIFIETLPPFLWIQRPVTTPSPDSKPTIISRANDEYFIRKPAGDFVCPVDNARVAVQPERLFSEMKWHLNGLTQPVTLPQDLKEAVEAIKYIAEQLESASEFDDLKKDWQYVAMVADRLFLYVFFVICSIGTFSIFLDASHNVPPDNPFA
T1 sequence (P02710 whole entry, looked up, chain 4 of 4): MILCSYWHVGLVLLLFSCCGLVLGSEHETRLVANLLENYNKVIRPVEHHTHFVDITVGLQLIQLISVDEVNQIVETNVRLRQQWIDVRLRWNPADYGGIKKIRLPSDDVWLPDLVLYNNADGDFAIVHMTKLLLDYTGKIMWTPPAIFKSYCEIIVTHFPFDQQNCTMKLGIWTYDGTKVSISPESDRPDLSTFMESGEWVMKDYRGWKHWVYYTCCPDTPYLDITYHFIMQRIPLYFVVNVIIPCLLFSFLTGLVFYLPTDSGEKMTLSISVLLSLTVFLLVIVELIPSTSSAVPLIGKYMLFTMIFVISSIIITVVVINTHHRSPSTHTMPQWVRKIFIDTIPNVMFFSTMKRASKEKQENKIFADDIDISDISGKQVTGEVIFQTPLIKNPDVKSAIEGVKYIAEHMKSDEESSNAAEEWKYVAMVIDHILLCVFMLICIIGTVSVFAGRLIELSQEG

- binding result: binds
B1: rat mAb35, anti-nAChR main immunogenic region antibody (rat IgG1) (antibody, V domains shown)
VH: EVQLQESGPGLVQPSETLSLTCTVSGFSLTSYSVSWLRQPSGKGPEWMGRMWDDGGTVYNSGLKSRLSISRDTSKNQVFLKMNSLQTDDTGTYYCTRDERIRAINWFAYWGQGTLVTVSS
VL: DIVITQSPSLLSASVGDRVTLTCKGSQNIDNYLAWYQQKLGEAPKLLIYKTNSLQTGIPSRFSGSGSGTDYTLTISSLHSEDLATYYCYQYINGYTFGTGTKLELK
notes: heavy chain of rat mAb35 (rat IgG1); light chain of rat mAb35; the hybridoma clone is named for the cDNA; also called mAb35 (rat); source: rat Hybridoma
